Test results from US20250027068.

Molecular target: pooled human IgG (human IgG1, 2, 3 and 4)

B1: PRT-637 (protein)
chain: MQITSVWTKGVTPLTPEQFRYNNEDVIHAPYLAHQGWYDITKAFDGGDGLLCGAATAGNMLHWWFDQNKTEIEAYLSKHPEKQKIIFNNQELFDLKAAIDTKDSQTNSQLFNYFRDKAFPNLSARQKGVMPDLVLDMFINGYYLNVFKTQSTDVNRPYQDKDKRGGIFDAVFTRGDQTTLLTARHDLKNKGLNDISTIIKQELTEGRALALSHTYANVSISHVINLWGADFNAEGNLEAIYVTDSDAGNGIGMKKYFVGINAHGHVAISAKKIEGENIGAQVLGLFTLSSGKDIWQKLSLEHHHHHH
- Enzyme Activity Endpoint Assay (purified): Fab′2: 278 ng/µL
- Enzyme Activity Endpoint Assay (purified): Fc: 188 ng/µL
- Enzyme Activity Endpoint Assay (purified): IgG: 464 ng/µL
- Enzyme Activity Endpoint Assay (purified): scIgG: 602 ng/µL

B2: PRT-644 (protein)
chain: MQITSVWTKGVTPLTPEQFRYNNEDVIHAPYLAHQGWYDITKAFDGKDNLLCGAATAGNMLHWWFDQNKTEIEAYLSKHPEKQKIIFNNQELFDLKAAIDTKDSQTNSQLFNYFRDKAFPNLSARQLGVMPDLVLDMFINGYYLNVFKTQSTDVNRPYQDKDKRGGIFDAVFTRGDQTTLLTARHDLKNKGLNDISTIIKQELTEGRALALSHTYANVSISHVINLWGADFNAEGNLEAIYVTDSDANASIGMKKYYVGKNASGHVAISAKKIEDENIGAQVLGLFTLSSGKDIWQKLSLEHHHHHH
- Enzyme Activity Endpoint Assay (purified): Fab′2: 882 ng/µL
- Enzyme Activity Endpoint Assay (purified): Fc: 518 ng/µL
- Enzyme Activity Endpoint Assay (purified): IgG: 0 ng/µL
- Enzyme Activity Endpoint Assay (purified): scIgG: 355 ng/µL

B3: PRT-642 (protein)
chain: MQITSVWTKGVTPLTPEQFRYNNEDVIHAPYLAHQGWYDITKTFNRGDNLLCGAATAGNMLHWWFDQNKTEIEAYLSKHPEKQKIIFNNQELFDLKAAIDTKDSQTNSQLFNYFRDKAFPNLSARQGGVMPDLVLDMFINGYYLNVFKTQSTDVNRPYQDKDKRGGIFDAVFTRGDQTTLLTARHDLKNKGLNDISTIIKQELTEGRALALSHTYANVSISHVINLWGADFNAEGNLEAIYVTDSDADEKIGMKKYFVGINAHGHVAISAKKIEGENIGAQVLGLFTLSSGKDIWQKLSLEHHHHHH
- Enzyme Activity Endpoint Assay (purified): Fab′2: 175 ng/µL
- Enzyme Activity Endpoint Assay (purified): Fc: 260 ng/µL
- Enzyme Activity Endpoint Assay (purified): IgG: 360 ng/µL
- Enzyme Activity Endpoint Assay (purified): scIgG: 760 ng/µL

B4: PRT-625 (protein)
chain: MQITSVWTKGVTPLTPEQFRYNNEDVIHAPYLAHQGWYDITKAFDGKDNLLCGAATAGNMLHWWFDQNKTEIEAYLSKHPEKQKIIFNNQELFDLKAAIDTKDSQTNSQLFNYFRDKAFPNLSARQLGVMPDLVLDMFINGYYLNVFKTQSTDVNRPEDDKDKRGGIFDHVFTRGDQSTLLTARHDLKNKGLNDISTIIKQELTEGRALALSHTYANVSISHVINLWGADFNAEGNLEAIYVTDSDANASIGMKKYFVGINAHGHVAISAKKIEGENIGAQVLGLFTLSSGKDIWQKLSLEHHHHHH
- Enzyme Activity Endpoint Assay (purified): Fab′2: 451 ng/µL
- Enzyme Activity Endpoint Assay (purified): Fc: 405 ng/µL
- Enzyme Activity Endpoint Assay (purified): IgG: 78 ng/µL
- Enzyme Activity Endpoint Assay (purified): scIgG: 531 ng/µL

B5: PRT-650 (protein)
chain: MQITSVWTKGVTPLTPEQFRYNNEDVIHAPYLAHQGWYDITKAFDGKDNLLCGAATAGNMLHWWFDQNKTEIEAYLSKHPEKQKIIFNNQKLFDLKAAIDTKDSQTNSQLFNYFRDKAFPNLSARQLGVMPDLVLDMFINGYYLNVTKTQSTDVNRPYQTKDPRGGIFDAVFTRGDQTTLLTARHDLKNKGLNDISTIIKQELTEGRALALSHTYANVSISHVINLWGADFNAEGNLEAIYVTDSDANASIGMKKYFVGINAHGHVAISAKKIEGENIGAQVLGLFTLSSGKDIWQKLSLEHHHHHH
- Enzyme Activity Endpoint Assay (purified): Fab′2: 522 ng/µL
- Enzyme Activity Endpoint Assay (purified): Fc: 452 ng/µL
- Enzyme Activity Endpoint Assay (purified): IgG: 130 ng/µL
- Enzyme Activity Endpoint Assay (purified): scIgG: 600 ng/µL

B6: PRT-647 (protein)
chain: MQITSVWTKGVTPLTPEQFRYNNEDVIHAPYLAHQGWYDITKAFDGKDNLLCGAATAGNMLHWWFDQNKTEIEAYLSKHPEKQKIIFNNQELFDLKAAIDTKDSQTNSQLFNYFRDKAFPNLSARQLGVMPDLVLDMFINGYYLNVFKTQSTDVNRPYQDKDKRGGIFDAVFTRGDQTTLLTNRYDLYDKGLNDISTIIKQELTEGRALALSHTYANVSISHVINLWGADFNAEGNLEAIYVTDSDANASIGMKKYFVGINAHGHVAISAKKIEGENIGAQVLGLFTLSSGKDIWQKLSLEHHHHHH
- Enzyme Activity Endpoint Assay (purified): Fab′2: 777 ng/µL
- Enzyme Activity Endpoint Assay (purified): Fc: 465 ng/µL
- Enzyme Activity Endpoint Assay (purified): IgG: 0 ng/µL
- Enzyme Activity Endpoint Assay (purified): scIgG: 330 ng/µL

B7: PRT-697 (protein)
chain: MTITSVWTKGVIPPTPEDFRYNNEDVLHAPYVPNQGWYDITKTFDGGDNLLCGAATAGNMLHWWFDQNKEEIERYLKKYPEKQKIIFNNQELFDVRAAINTKDSQTNSKLFNYFRDKAFPNLSARQLGVMPDLVLDMFINGYYLNLGKTQSTDVNRPYQDRDKRGGIFDHVFGRGDQTTLLTARHDLKNGGLNEISDLIKQELQSGKALALSHTYANVRINHVINLWGADFDAEGNLIAIYVTDSDANSSIGMKKYYVGVNANGKVAISAKKIEGDNIGAQVLGLFTLSTGQEIWQKLSLEHHHHHH
- Enzyme Activity Endpoint Assay (purified): Fab′2: 701 ng/µL
- Enzyme Activity Endpoint Assay (purified): Fc: 430 ng/µL
- Enzyme Activity Endpoint Assay (purified): IgG: 221 ng/µL
- Enzyme Activity Endpoint Assay (purified): scIgG: 161 ng/µL

B8: PRT-621 (protein)
chain: MQITSVWTKGVTPLTPEQFRYNNEDVIHAPYLAHQGWYDITKAFDGKDNLLCGAATAGNMLHWWFDQNKTEIEAYLSKHPEKQKIIFNNQELFDLKAAIDTKDSQTNSQLFNYFRDKAFPNLSARQLGVMPDLVLDMFINGYYLNVFKTQSTDVNRPYQDKDKRGGIFDAVFTRGDQTTLLTARHDLKNKTLNEISQIIKQELSSGRALALSHTYANVSISHVINLWGADFNAEGNLEAIYVTDSDANASIGMKKYFVGINAHGHVAISAKKIEGENIGAQVLGLFTLSSGKDIWQKLSLEHHHHHH
- Enzyme Activity Endpoint Assay (purified): Fab′2: 976 ng/µL
- Enzyme Activity Endpoint Assay (purified): Fc: 514 ng/µL
- Enzyme Activity Endpoint Assay (purified): IgG: 0 ng/µL
- Enzyme Activity Endpoint Assay (purified): scIgG: 0 ng/µL

B9: PRT-619 (protein)
chain: MQITTVWTKGVTPLTPEQFRYNNEDVIHAPYLAHQGWYDITKAFDGKDNLLCGAATAGNMLHWWFDQNKTEIEAYLSKHPEKQKIIFNNQELFDLKAAIDTKDSQTNSQLFNYFRDKAFPNLSARQLGVMPDLVLDMFINGYYLNVFKTQSTDVNRPYQDKDKRGGIFDAVFTRGDQTTLLTARHDLKNGGLEDISTIIKQELKNGRALALSHTYANVSISHVINLWGADFNAEGNLSAIYVTDSDANASIGMKKYFVGINAHGHVAISAKKIEGENIGAQVLGLFTLSSGKDIWQKLSLEHHHHHH
- Enzyme Activity Endpoint Assay (purified): Fab′2: 140 ng/µL
- Enzyme Activity Endpoint Assay (purified): Fc: 283 ng/µL
- Enzyme Activity Endpoint Assay (purified): IgG: 102 ng/µL
- Enzyme Activity Endpoint Assay (purified): scIgG: 591 ng/µL

B10: PRT-657 (protein)
chain: MQITSVWTKGVTPLTPEQFRYNNEDVIHAPYLAHQGWYDITKAFDGKDNLLCGAATAGNMLHWWFDQNKTEIEAYLSKHPEKQKIIFNNQELFDLREAINTKDSQTDSKLFNYFRDKAFPNLSARQLGVMPDLVLDMFINGYYLNVFKTQSTDVNRPYQDKDKRGGIFDAVFTRGDQTTLLTARHDLKNKGLNDISTIIKQELTEGRALALSHTYANVSISHVINLWGADFNAEGNLEAIYVTDSDANASIGMKKYFVGINAHGHVAISAKKIEGENIGAQVLGLFTLSSGKDIWQKLSLEHHHHHH
- Enzyme Activity Endpoint Assay (purified): Fab′2: 430 ng/µL
- Enzyme Activity Endpoint Assay (purified): Fc: 250 ng/µL
- Enzyme Activity Endpoint Assay (purified): IgG: 0 ng/µL
- Enzyme Activity Endpoint Assay (purified): scIgG: 0 ng/µL

B11: PRT-633 (protein)
chain: MQITSVWTKGVTPLTPEQFTNNNEDVIHAPYKANQGWYDITKAFDGKDNLLCGAATAGNMLHWWFDQNKTEIEAYLSKHPEKQKIIFNNQELFDLKAAIDTKDSQTNSQLFNYFRDKAFPNLSARQLGVMPDLVLDMFINGYYLNVFKTQSTDVNRPYQDKDKRGGIFDAVFTRGDQTTLLTARHDLKNKGLNDISTIIKQELTEGKALALSHTYANVSISHVINLWGADFNAEGNLEAIYVTDSDANASIGMKKYFVGINAHGHVAISAKKIEGENIGAQVLGLFTLSSGKDIWQKLSLEHHHHHH
- Enzyme Activity Endpoint Assay (purified): Fab′2: 749 ng/µL
- Enzyme Activity Endpoint Assay (purified): Fc: 429 ng/µL
- Enzyme Activity Endpoint Assay (purified): IgG: 0 ng/µL
- Enzyme Activity Endpoint Assay (purified): scIgG: 0 ng/µL

B12: PRT-681 (protein)
chain: MQITSVWTKGVTPLTPEQFRYNNEDVIHAPYLAHQGWYDITKAFDGKDNLLCGAATAGNMLHWWFDQNKTEIEAYLSKYPEKQKIIFNNQELFDLRAAINTKDSQTNSQLFNYFRDKAFPNLSARQLGVMPDLVLDMFINGYYLNVFKTQSTDVNRPYQDKDKRGGIFDAVFTRGDQTTLLTARHDLKNKGLNDISTIIKQELTEGRALALSHTYANVSISHVINLWGADFNAEGNLEAIYVTDSDANASIGMKKYYVGINAHGHVAISAKKIEGENIGAQVLGLFTLSSGKEIWQKLSLEHHHHHH
- Enzyme Activity Endpoint Assay (purified): Fab′2: 915 ng/µL
- Enzyme Activity Endpoint Assay (purified): Fc: 492 ng/µL
- Enzyme Activity Endpoint Assay (purified): IgG: 0 ng/µL
- Enzyme Activity Endpoint Assay (purified): scIgG: 0 ng/µL

B13: PRT-663 (protein)
chain: MQITSVWTKGVTPPTPEQFRYNNEDVIHAPYLAHQGWYDITKTFDGKDNLLCGAATAGNMLHWWFDQNKTEIEAYLSKHPEKQKIIFNNQELFDLKEAINTKDSQTNSQLFNYFRDKAFPNLSARQLGVMPDLVLDMFINGYYLNVFKTQSTDVNRPYQDKDKRGGIFDAVFTRGDQTKLLTARHDLKNKGLNEISTLIKQELTEGKALALSHTYANVSISHVINLWGADFNAEGNLEAIYVTDSDANASIGMKKYFVGINASGHVAISAKKIEGENIGAQVLGLFTLSTGKDIWQKLSLEHHHHHH
- Enzyme Activity Endpoint Assay (purified): Fab′2: 825 ng/µL
- Enzyme Activity Endpoint Assay (purified): Fc: 456 ng/µL
- Enzyme Activity Endpoint Assay (purified): IgG: 0 ng/µL
- Enzyme Activity Endpoint Assay (purified): scIgG: 0 ng/µL

B14: PRT-549 (protein)
chain: MANQEIRYSEDTPSHITSVWTKGVTPPTQFIQNEDVLHAPYIANQGWYDITKTFNGKDDLLCGAATAGNMLHWWFDQNKEQIEAYLKKYPEKQKINFNGEQMFDVKEAIDTKDSQTDSALFNYFKDKAFPYLSTKHLGVFPDHVIDMFINGYRLSLTNHGPTPVKNQTKDPRGGIFDAVFTRGDQSKLLTARHDFKEKTLKEISQLIKQELTEGKALGLSHTYANVRINHVINLWGADFNAEGNLEAIYVTDSDSNASIGMKKYYVGVNAAGKVAISAKEIEGDNIGAQVLGLFTLSTGQDIWQQTNLEHHHHHH
- Enzyme Activity Endpoint Assay (purified): Fab′2: 725 ng/µL
- Enzyme Activity Endpoint Assay (purified): Fc: 491 ng/µL
- Enzyme Activity Endpoint Assay (purified): IgG: 0 ng/µL
- Enzyme Activity Endpoint Assay (purified): scIgG: 279 ng/µL
